Results from article PMC6572826, “Native top-down mass spectrometry provides insights into the copper centers of membrane-bound methane monooxygenase” (Nature Communications, 2019).

T1: PmoB subunit of particulate methane monooxygenase from Methylomicrobium alcaliphilum 20Z (20Z-pMMO) (Methylomicrobium alcaliphilum 20Z, UniProt G4SZ64 33-414, methyl-lysine at Lys 36 (~100% stoichiometry))
T1 construct: PmoB subunit of pMMO, Methylomicrobium alcaliphilum 20Z; residues His 33 to Ile 414 after cleavage of the N-terminal signal peptide; theoretical mass 42,147.17 Da; also called 20Z-pMMO PmoB; source: endogenous, Mm. alcaliphilum 20Z membranes, solubilized with DDM, purified by anion exchange chromatography
T1 sequence (looked up): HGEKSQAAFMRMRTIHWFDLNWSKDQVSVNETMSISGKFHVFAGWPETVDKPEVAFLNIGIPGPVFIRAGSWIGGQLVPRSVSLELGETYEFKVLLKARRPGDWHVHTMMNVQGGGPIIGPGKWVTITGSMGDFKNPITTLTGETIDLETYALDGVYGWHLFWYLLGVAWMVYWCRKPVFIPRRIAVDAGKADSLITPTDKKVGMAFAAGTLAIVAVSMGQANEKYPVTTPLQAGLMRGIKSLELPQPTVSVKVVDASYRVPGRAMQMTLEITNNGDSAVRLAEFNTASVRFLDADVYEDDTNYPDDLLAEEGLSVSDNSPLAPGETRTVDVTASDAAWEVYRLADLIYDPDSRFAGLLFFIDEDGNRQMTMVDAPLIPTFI

B1: PmoA subunit of particulate methane monooxygenase from Methylomicrobium alcaliphilum 20Z (20Z-pMMO) (natural protein, UniProt G4SZ63 2-247, looked up)
chain: SASQSAVRSRAEAVKVSRTFDYMILFTVFFVVLGGYHIHYMLTGGDWDFWTDWKDRRLWVTVAPIVSITFPAAVQAVLWWRYRIAWGATLCVLGLLLGEWINRYFNFWGWTYFPVNFVFPSNLMPGAIVLDVILMLSNSMTLTAVVGGLAWGLLFYPGNWPIIAPLHVPVEYNGMMMTLADLQGYHYVRTGTPEYIRMVEKGTLRTFGKDVAPVSAFFSGFVSILIYFLWHFFGSWFGSEKFVQAA
modifications: initiator methionine removed (MetOFF); N-terminal acetylation (NtAc) on the new N-terminus
notes: PmoA subunit of pMMO, Methylomicrobium alcaliphilum 20Z; theoretical mass of the unmodified subunit 28,257.1 Da; found without the initiator methionine and N-terminally acetylated; also called 20Z-pMMO PmoA; source: endogenous, Mm. alcaliphilum 20Z membranes, solubilized with DDM, purified by anion exchange chromatography

Tests used:
[1] = target: B1; assay: native MS; pMMO in POPC nanodiscs (MSP2N2 or MSP1E3D1), 200 mM ammonium acetate, pH 7.2; subunits ejected from the pMMO-nanodisc complex by CID at the source (MS^2) and fragmented (MS^3); no intact mass of the complex obtained; conditions: both partners purified
[2] = target: T1, PmoB subunit of particulate methane …; assay: native MS; pMMO solubilized in DDM, exchanged into 200 mM ammonium acetate, pH 7.2, 0.155% (w/v) Triton X-100; protomer ejected from the micelle (MS^1), then subunits ejected from the protomer by collisional activation (MS^2); conditions: both partners purified

Row | binding result [1] | binding result [2] | Binder
1 | binds | binds | PmoC subunit of particulate methane monooxygenase from Methylomicrobium alcaliphilum 20Z (20Z-pMMO), truncated proteoform (natural protein, UniProt G4SZ62 7-250, looked up, PmoC subunit of pMMO, Methylomicrobium alcaliphilum 20Z; the major species is a truncated form without the first six N-terminal residues (MAATTE); theoretical mass of the whole subunit 28,851.4 Da; A minor PmoC species without the initiator methionine and with N-terminal acetylation was also seen from nanodiscs; also called truncated PmoC; 20Z-pMMO PmoC; source: endogenous, Mm. alcaliphilum 20Z …) SVKADAAEAPLLNKKNIIAGASLYLVFYAWVRWYEGVYGWSAGLDSFAPEFETYWMNFLYIEMVLEVLTASVLWGYIWKSRDRKVMSITPREELRRHFTHWTWLMMYGIAIYFGASYFTEQDGTWHQTIVRDTDFTPSHIIEFYLSYPIYIITGGASFLYAKTRLPTYQQGLSLQYLVVVVGPFMILPNVGLNEWGHTFWFMEELFVAPLHYGFVFFGWSALGVLGVINIELGALSKLLKKDLA
2 | – | binds | B1
